Assay: soluble on expression in E. coli; label from the status in PepcDB or PDB records

Sequence | soluble on expression in E. coli
MEKTITIYTDGAASGNPGKGGWGALLMYGSSRKEISGYDPATTNNRMELMAAIKGLEALKEPARVQLYSDSAYLVNAMNEGWLKRWVKNGWKTAAKKPVENIDLWQEILKLTTLHRVTFHKVKGHSDNPYNSRADELARLAIKENS | soluble
MAEVITLSDDDDDVIPLTPRPPVVLKTSTTANHGNNSQATVHVSTGKNLNFDQIGIRRLSDVYNKNQPAFRGNEIPTGIRNSRPSLPATAILQNPQFLVQLAAKGLKRPFSSVHSTPAVVPSTSIQRTRNNQNAGNTPNIYKGHYMFEATESYEPSRRSSRYNTKKIEGKFMCSYNPTKCYKLCGSVVEVINHIWAHVIHDPPLPPIEKKESKDDGMFSCLLRNSDAAQLAENSALSLKRLQTCQFCNAVFRTVHLKTIHVVKCHMEQDHLDTTCNICELDFGNSIALNTHMKKHISGEAPYNCQKCKYRTSVRAFFYQHFIEKHSNETLLCPICLHHEDLRPNVRRSKHIFVREFVNHMRSHALGPQMRCHVCALTFTSRLLLEAHRTNDHTMLNSLWQVIERKSVHETEREHMSKRNKIGLLQRRFFETLEGRRINDEVACAGDKEREGFDLTTTGDTLFECECGFKSWNGNRTASHYHKCRRSINDIERKREIVRLGSDPKEELELFAVYPQPTNTEAETEEATLRKIHLERGDPLPILEDIVYQPIDDLPLLKMLSKNHDKSLEIMEKCTASAVTTED | not soluble
MMLITDTGVPERYIDTDEWGGEVMLRLDDGWCAALDRNTMMCTIYEKRPLICREFEAGAEDCLTERKGIATAYLLEHHHHHH | not soluble
SLLKKIKKALFQPKKFFQDSMWLTTSPFYLTPPRNNLFVISNLGQLNQVQSLIKIQKLTNNLLVILYTSKNLKMPKLVHQSANKNLFESIYLFELPRSPNNITPKKLLYIYRSYKKILNIIQPAHLYMLSFTGHYSYLISIAKKKNITTHLIDEGTGTYAPLLESFSYHPTKLERYLIGNNLNIKGYIDHFDILHVPFPEYAKKIFNAKKYNRFFAHAGGISINNNIANLQKKYQISKNDYIFVSQRYPISDDLYYKSIVEILNSISLQIKGKIFIKLHPKEMGNNYVMSLFLNMVEINPRLVVINEPPFLIEPLIYLTNPKGIIGLASSSLIYTPLLSPSTQCLSIGELIINLIQKYSMVENTEMIQEHLEIIKKFNFINILNDLNGVISNPLFKTEETFETLLKSAEFAYKSKNYFQAIFYWQLASKNNITLLGHKALWYYNALYNVKQIYKMEYSDIFYIDNISVDFHSKDKLTWEKIKHYYYSADNRIGRDR | not soluble
MKKTLPKTEAPSSVGNGSDSPIEFDAIIRQVPDMDAAYVEIPFDVKTVYGKGRVRVNATFDGYPYTGYIVRMGLPCHILGLRQDIRRAIGKQPGDSVYVTLLPL | soluble
MDGELRAQGLRKRYGPKEVVRGVDLALRRGEIVALFGPNGAGKTTTFYMVVGFIRPTGGRIYLKGQEITALPMYKRARLGLGYLPQEPSAFRRMTALENLLAVLEFQPLSKKERLEKAKALLEELSIYHLRDRMAYSLSGGERRRLEIARALATDPDFLLLDEPFTGVDPKNVREIQKVIAELRERRGVGVFITDHAVRETLAITDRVYLMYDGQVLFHGDPETFAKDQGVRRHYLGEDYEL | soluble
MGSDKIHHHHHHMAVSLWQQCIGRLQDELSAQQFSMWIRPLQAEMEGDTLVLYAPNRFVLDWVRDKYINSINQFFTEQLGDNAPKLRFDIGSRPSAKPQAPAPAAVKAAAPQPKPGNSFVSQPEPAVSNHRSNINPTYQFDNFVEGKSNQLGKAAALQVAENPGGAYNPLFLYGGTGLGKTHLLHAVGNGIIKNNPNAKVVYMHSERFVQDMVKALQNNAIEEFKRYYRSVDALFIDDIQFFANKDRSQEEFFHTFNALLEGNHQIILTSDRYPKEIDGVEDRLKSRFGWGLTVAIEPPELETRVAILMRKAQESGINLPDEVAFFIAKRLRSNVRELEGALNRVIANANFTGRPITIDFVREALRDLLALQEKLVTIDNIQKTVAEYYKIKMADMLSKRRSRSVARPRQMAMALSKELTNQSLPEIGDAFGGRDHTTVLHACRKIAQLREESHDIKEDYANLIRTLSS | not soluble
MPLHVVLYQPEIPANTGNIARTCAATDTSLHLIRPLGFSTDDKMLKRAGLDYWPYVNISYYDSLDELFARFPEGEFYFITKFGRRYYDSFDFSDTEKHIFFVFGRETTGLPKELLEANMDRCLRIPMNDKVRSLNLSNTAAILVYEALRQQRFYGLS | not soluble
MFEKEKEGLIEVQNVYEIAPEDGTIIGMATEEEMEIAAELELQYYAHSRLLEANIQLDGSSYKELLQEFQEYERKSMSFWRAIHKRLAVPWAWVLRIDVANGPIYVSNGSSYYEEIDDEEDYE | not soluble
MSLNTTFTKEDGTEVVIPFNGSQNGHPENEEPEVEEAAEPSSSVETLCGATRGDIIVMKHTTKALTELIERLLHSDEFEVRRCSNGQIISQGRCNGTTPGNGIGGGGASSEELEKALKDRDAARAEADKLHANYATLFASFNTVREAANDIRGEYEDARDKLKLAAAEVDEWQAKFLAVKDNANSELERASVEYDDLLRSHDENTKGLRLRVKRQEIELSSKNDEIKVLTNRVSELSQICDQLLNDVDVSDGMSVISTDA | not soluble
MGSDKIHHHHHHMNIKEKIAVQLYSVRKEMERDLEGTLRKMHEIGFRYVQLDGMRGNDPSEVRRLLQKYELKVIGMHIKHDRFMNDLDGIIEEAYFFDCKTVFDKYIEEEDQTTAGYTATKAALINAAEKLHPLGFRIGLHNPEYDFNECIHGRRVMDYITDPVDGICIYAEPDTYWIRAAGHDETEFIKRYSGRAPIVHMKDFLSGFELEDMDNNLVEIGQGEVDFRAIIEWGEANGVEYYCIEQDKSKRAMFETLEASYQYLLQL | not soluble
MNITIVLGDKIPSIKYGGTQRVMWYLGKELNKRGHKVTFIAGKGSSCPFAKVIELDPSVNLNTQIPTDADIVHFNIPVPEGITKPHLLTIHGNGIPANADRNIVFVSRNHAQRLGSESFVYNGLDWDDYGPANLTLSRKNYHFLGKAAWKVKNIKGAIAVVQSIKNAQLDVLGGYRLNLKMGFRFTWNPRIHFHGMVDDSKKKVIIEQSKGLIFPVTWHEPFGLAITESLYFGAPVFGTPYGALPELVSPEVGFLTAHGQEMAEHIQSAQYSPKVCHEYARDLFNSSVMAEAYLKKYETVLNGEPLNKEVPHIIDIARRLPWD | not soluble
MSTSEDKPEIISRVVHQEGDVEIVDRSQKDKDEEKEEGKGGFLDKVKDFIHDIGEKLEGTIGFGKPTADVSAIHIPKINLERADIVVDVLVKNPNPVPIPLIDVNYLVESDGRKLVSGLIPDAGTLKAHGEETVKIPLTLIYDDIKSTYNDINPGMIIPYRIKVDLIVDVPVLGRLTLPLEKCGEIPIPKKPDVDIEKIKFQKFSLEETVAILHVRLQNMNDFDLGLNDLDCEVWLCDVSIGKAEIADSIKLDKNGSGLINVPMTFRPKDFGSALWDMIRGKGTGYTIKGNIDVDTPFGAMKLPIIKEGGETRLKKEDDDDDDEE | soluble
MAHHHHHHMPTSSWRAEHLLIKHSGSRNPVSRRTGQPTTISYEEAVTELQKWCQSINDGKVTFEEAARQRSDCSSYARGGDLGVFGPGEMMKPFEDATKSLEVGQVSGIVVTDSGVHIIKRIA | soluble
MGSDKIHHHHHHDTEKKVSEEGFVFTTVKENPITSVKNQNRAGTCWCYSSYSFLESELLRMGKGEYDLSEMFTVYNTYLDRADAAVRTHGDVSFSQGGSFYDALYGMETFGLVPEEEMRPGMMYADTLSNHTELSALTDAMVAAIAKGKLRKLQSDENNAMLWKKAVAAVHQIYLGVPPEKFTYKGKEYTPKSFFESTGLKASDYVSLTSYTHHPFYTQFPLEIQDNWRHGMSYNLPLDEFMEVFDNAINTGYTIAWGSDVSESGFTRDGVAVMPDDEKVQELSGSDMAHWLKLKPEEKKLNTKPQPQKWCTQAERQLAYDNYETTDDHGMQIYGIAKDQEGNEYYMVKNSWGTNSKYNGIWYASKAFVRYKTMNIVVHKDALPKAIKAKLGIK | not soluble
MSLFQDNPLLAQLKQKIQETLPKKEGTIKASDKGFGFLEVDSKTSYFVPPPYMKKCMHGDKVVAFIRTENEREVAEPSELIEQSLTRFIGRVKLFKGKLNVAPDHPQLKKLSLKAKTKKGLNEADFQEGDWVVAHLVRHPLKGDDGFFVQISHKITDANDKIAPWWVTLAENDLPNSEPAGIDDWQLKDDADLVREDLTALPFVTIDGESTKDMDDALYAQQLPNGDFALTIAIADPTAYITPEDEMDKVARERGFTIYLPGRNIPMLPRDLADELCSLMENQVRPALCCSVTIRKDGVIGDDIRFFAANIKSHARLVYDHVSDWLETGSSEQWQPSEEIAQVVRDLYAFSQARANWRETHAVVFPDRPDYRFELSADNDVVAIHADMRRTANRLVEESMITANICAGKTLQTTFGFGVFNTHAGFKAEKMADVVELMAVNGAPNADAETLATVEGFAALRRWLATQETSYLDNRIRKYQSYSEIGNQPLPHFAMGLDVYATWTSPIRKYGDMINHRLLKAHILGKAPVQTPDETVGEELALHRKHHKIAERNVADWLYARTLADEPAKETRFQAEIFDINRPGMRVRLLENGAMAFIPGALILDNKERIECNGEDGTVLIDKEVVYKLGDVLEIVLTEVNQENRSLVGKPTQVFADLVSETQTSAEQPAEGAENNEPQVEGHHHHHH | soluble
QVQLLESGAELVKPGASVKLSCKASGYTFTSYWMHWVKQRPGRGLEWIGRIDPNSGGTKYNEKFKSKATLTVDKPSSTAYMQLSSLTSEDSAVYYCTRRDSDYWGAGTTVTVSSASTKGPSVFPLAPSSKSTSGGTAALGCLVKDYFPEPVTVSWNSGALTSGVHTFPAVLQSSGLYSLSSVVTVPSSSLGTQTYICNVNHKPSNTKVDKKVEPKSCDKT | soluble
MGSDKIHHHHHHMPSTNPFLTLPYEPAFASLGSEFSDPVEAATFPAHQLRFRNDRLLPILGLDPATVTDEHFIEAFGRFQGRSPLLAMRYHGYQFGIYNPDLGDGRGFLYGQVRGRNGWLYDFGTKGSGRTPYSRGGDGKLTLKGGVREVLASEFLQRLGVRTGRCLSLIETGEELWRGDEPSPTRSSVMVRFNRTHIRFGTFERLHYFKRADLVRQLLDHVIATYYSHLLGDPEADAKFYAELTERTADLAAQWMAAGFCHAVLNTDNLSIVGESFDYGPWAFLDRFDPKFTAAYFDHSGRYRYENQPGICQLNLELLQVPLGMVMSAADLEAGIAGFGDRYQATYSRLMLRRLGFEADQLHSAIADDLIITTLQLLLRAPIGYNEFFARLRAQFQPSWRSDLSAILPDWITTDLEALPEAQWQGWRDRYHQLLTHLPESQLPLIQQQLAQANPEIAPIRPVVESVWDPIAIDDNWEPLEALLNRWRHDGDGAADGVVVPNAN | not soluble
MANSLCFFSSPPTFCFQSPSKNPKPSHFFSTNDNTSSLVQKRELLQTSRSQSFEVKAANNNPQGTKPNSLVCANCEGEGCVACSQCKGGGVNLIDHFNGQFKAGALCWLCRGKKEVLCGDCNGAGFIGGFLSTFDE | soluble
MDVQIFPHRLLGADTTEKLLNRLEDISGVKRMVIHGQRLPPEDHPDRRIISVKGHEFELQVKTGRVLLEIEDEDTIADIKRVCEDLLPFGYDVTPGKYIRTQKTVTDEIKYGEDLDKVPEELIGLTDQNARLSERATIIKRKKEHLEHHHHHH | soluble
MRRAILWFVALAIASVLAQQSRPASDPQVVEAARKEGRLIIYSSTDQSSAQALLDDFRKLYPFIQIEYNDLGTQAIYDRFVSETAAGASSADLLWSSAMELQVKLASEGYALPYDSPEAKNWPANARLGNLAYSTTLEPAVVVYNKRFLKPEEVPTTREGLARLLQEPRMRGRVATWDPERSAVGFTILKADYDRFPAFQELARAFGKAQAALYSSTGAAFEKVISGEHYLAYGFFGSYALLRQRTVKDLGIAYLTDGTVAIQRVAFINKRAAHPNAAKLFLDYLLSLRGQNLMAYTALIFARRETVVGEATPQALYKAVGGKDKVYAIPVSTEILKNLDPAERMRFLTFWRQAVRGQ | soluble
